Reference: PMC7791966 (Experimental and Therapeutic Medicine, 2020)
Where a chain is given by its changes, count along the chain named. Values belong to the binder of their own block, whether it stands above or below them.

Biological target: Recombinant human HER2 (Homo sapiens, UniProt P04626)
Assay: SPR

Kd: 2.5 nM
B1: e23sFv, mouse anti-HER2 single-chain variable fragment (scFv, V domains shown)
VH: VQLQESGPEVVKPGGSMKISCKTSGYSFTGHTMNWVKQSHGKNLEWIGLINPYNGDTNYNQKFKGKATFTVDKSSSTAYMELLSLTSEDSAVYYCARRVTDWYFDVWGAGTTVTVS
VL: DLQLTQSPAILSASPGEKVTMTCRATPSVSYMHWYQQKPGSSPKPWIYTTSNLASGVPARFSGGGSGTSYSLTVSRVEAEDAATYYCQQWSRSPPTFGGGSKLEIK

Kd: ~500 nM
B2: EMEY, e23sFv derivative with 11 point mutations in the framework regions (scFv, V domains shown)
VH: B1 VH with V10L, M17V, T23A, N43G, F69L, L83S
VL: B1 VL with S41T, P45L, G64S, V74I, S101T
